Measurements published in PMC13134850.

Target: RadD adhesin of Fusobacterium nucleatum subsp. nucleatum ATCC 23726 (Fusobacterium nucleatum subsp. nucleatum ATCC 23726 (endogenous on the bacteria))
Experiment: flow cytometry on cells

| Molecule | fold increase in binding to ATCC 23726 ∆fad-I |
| --- | --- |
| NKp46 fusion protein (NKp46 Ig) (human) (from UniProt O76036 22-258) (Fc fusion) | 100 fold |
| Ncr-1 fusion protein (Ncr-1 Ig) (mouse) (Fc fusion) QRINTEKETLPKPIIWAKPSIMVTNGNSVNIWCQGAQSASEYQLYFEGSFFALERPKPSRSMNKVRFFISQMTSHTAGIYTCFYQSGELWSKSSNPLKLVVTGLYDTPNLWVYPRPEVTLGENVTFFCQLKTATSKFFLLKERGSNHIQNKYGNIQAEFPMGPVTRAHRGTYRCFGSYNDYAWSFPSEPVTLLITGGVENSSLAPTDPTSSLDYWEFDLSTNESGLQKDSAFWDHTTQN | 100 fold |
